assay: soluble on expression in E. coli; label from the status in PepcDB or PDB records

| Sequence | soluble on expression in E. coli |
| --- | --- |
| MSININRQNMHKMLQYKRRCIMYINTGYLNHSHKDFKDKSRPLIVGSCGTYRLSQHPKMPTYRPRGRLDYQIIYISSGLVHFHFDNPENETIIPAGHIVLFRPKELQKYEFYGKDKTQIYWLHFTGSDVKNTLRKYGFTDNKRVFNVGTSLEYEQVFKRIITELQRCQDNYEEMLMLLLRHLLIIFNRKITTEHVIRNEFLDSQMDTAITYFNTNYNRSINVEEYASSIGMSISWFIRSFRKYTGNTPVQFLTALRMTNAQVLLETTSYSINEIAGIVGYNNPLYFSRLFHKQKGCSPSEYRARNT | not soluble |
| MITAYIALGSNLNTPVEQLHAALKAISQLSNTHLVTTSSFYKSKPLGPQDQPDYVNAVAKIETELSPLKLLDELQRIENEQGRVRLRRWGERTLDLDILLYGNEIIQNERLTIPHYDMHNREFVIVPLFEIASDLVLPNSQIITELVKQFADHKMIKLNP | soluble |
| SKIFSKCELARKLKSMGMDGFHGYSLANWVCMAEYESNFNTQAFNGRNSNGSSDYGIFQLNSKWWCKSNSHSSANACNIMCSKFLDDNIDDDIACAKRVVKDPNGMSAWVAWVKHCKGKDLSKYLASCNL | soluble |
| MSRIRSNNDNIIILTDEQRKTVGRIAGRSQNRNTSKKIADGPYFLPRYRIRDNAERSVGARFKSLPQKEQDEVVNEAFSNLREYLKKREPFYAKLRKANSKYSSKPKEREKSVDSNDEADRRNKGNKKTQKNASKNCQIEKSSNNSGILKKSGSGISVASKPKKSVAFAPGVYEDLSTDDDLEFLNSVIVNSDRPTSQCDNPARRMCGRPPTKHRDTEQSQEITGSKKQKIFPTPHEKPAWWSFRIPKKRAQ | soluble |
| MAHHHHHHMDYCEEAYNKLIEFLSENKTEKMMESSLSSALAVALCYNHRIVNMYENMKGRIFLLDISNETYVYTNQYTQLMNIAYNAKRNNIIIDVFSLNCKIQLLEQICNITNGLYIDSSIFFNVNCTDNIEDVLTQTMIFWFLPSNNTRKYFSNTYLNDDTNIAVCSCHNKQVDIAYICSCCLAIYCSEKDEKTNKERTSCFVCKTRFTKALLRNKVVSDLDFSSI | not soluble |
| MEWKNDVLRFSGFDYGVSKIRMLNEELHSECDQLSKSNESTSLKDITEEPKDEKLESIIETAKNKESEKEENSHVFNDCEFDAMTERKIENFYFRNVEQAEKKMKHLTTLKSKWSEPWQTGEEIVAKVYLKPKNHENPWKDGTFQEKEAVEMQKNGKKHGRCIIS | not soluble |
| EVKLVESGGGLVLPGGSLRLSCATSGFTFTDYYMTWVRQPPGKALEWLGFIGNKANDYTTEYSASVKGRFTISRDDSQSILYLQMSTLRAEDRATYYCATVYGNYPYFDVWGAGTTVAVSSAKTTPPSVYPLAPVCGGTTGSSVTLGCLVKGYFPEPVTLTWNSGSLSSGVHTFPAVLQSGLYTLSSSVTVTSSTWPSQSITCNVAHPASSTKVDKKIEPR | soluble |
| MEQDDPSGEWPLIAALPVRQDVPVDALLADVAAQLAAEGLRTAGFLQRDGVRLEDLTSGALYPITQDLGPGSSGCRLDPAGLALAAAAGLAALERGADLLVIPRFGKAEIEGEGMRGVIGRACELGVPTLVGVRQSAEPAWETFAGGLAEWIAPERQAVAGWCRTACAPVRCRTLEHHHHHH | not soluble |
| MLASAILPVVSFAESDPLDVLLKKLEEKGVITKEEAKEVKKVAKKHPHLKVKIRLQPRIDFGDIYKENNDYKSRSDFYFRRVRLEISKEWKNIPFGKKLKINFTLHSDKGERDYDYKKGEKEHHSFDPKVKYAYADWTFVDEFAVRIGKNKIPYSRVSLTSSSRQLLIERPYVTEDAKKWLGDYDSNQIMFHGKVAGGIFRYMLSIWDGSTIESKNKTGGTVKADTSLGDAYAIRLEFSPPGFVEKKKDDTGIGEKNKGDVISVGLNYAKNSDFDITDKNIKNEEATVWGGDIFGRFHLGPGALVAQAEYVKMKYDKLDLEEKGYYIQAGYLIPTPYGKFEPAARYEHFKQEDKKNDVTKHKKDIITLGFNHYIKGHKIKWGYNVLFIDNKEKDEKDQTVHQIQMQFYF | not soluble |
| MVHYKLSYFPIRFAGEIPRQILAYAGQKFEDHRIPQADWPALKSTMPFGTLPVLYQDGKPLGQSHAISRFLARQFGINGRCPWEEAQVNAIADQFKDYLNDIRSYNLVKMGFAQGDADALYKDTFLPNFKKNYQFFTNFLKASGSGFLIGDSVTWVDLLIAQHTSDLLSDSGSVFAASQSLLDEFPELKAHQKKIHSIPNIKKWVETRPVTPF | not soluble |
| VVPGPVHTSPREVAGPVDVLILAVKATQNDAARPWLTRLCDERTVVAVLQNGVEQVEQVQPHCPSSAVVPAIVWCSAETQPQGWVRLRGEAALVVPTGPAAEQFAGLLRGAGATVDCDPDFTTAAWRKLLVNALAGFMVLSGRRSAMFRRDDVAALSRRYVAECLAVARAEGARLDDDVVDEVVRLVRSAPQDMGTSMLADRAAHRPLEWDLRNGVIVRKARAHGLATPISDVLVPLLAAASDGPG | not soluble |
| MAHHHHHHMIIEKGEPLNKEIIDHVLDHVTEFPTPTMVSVGDGKADCIVLENFLTHEECDQLVAACEKVGYTFWLQKNHHDADGEATCDSGSKAVRVVDTIEANFPHLSAKLYERIARVVSLKPKCFSEDMPNAEELFERELAGTWVPHALSENLLFGRYHPGGHFMPHVDGATILDLNTRSFYTLLIYLNDCLHGGETFIFAGEQCNVMYLDEKENQYRGNATQRVGAVYPKKGSAAFFYYNLLHEGAPVLEGHKYICRADLLYHRTPTIFTSEADEKAFKAYQEARLAESHGDAERACQLFQRVRKLSKGVASIFQIE | soluble |
| MGHHHHHHSHMTSFEDADTEETVTCLQMTVYHPGQLQCGIFQSISFNREKLPSSEVVKFGRNSNICHYTFQDKQVSRVQFSLQLFKKFNSSVLSFEIKNMSKKTNLIVDSRELGYLNKMDLPYRCMVRFGEYQFLMEKEDGESLEFFETQFILSPRSLLQENNWPPHRPIPEYGTYSLCSSQSSSPTEMDENES | not soluble |
| MPYLLEMKNITKTFGSVKAIDNVCLRLNAGEIVSLCGENGSGKSTLMKVLCGIYPHGSYEGEIIFAGEEIQASHIRDTERKGIAIIHQELALVKELTVLENIFLGNEITHNGIMDYDLMTLRCQKLLAQVSLSISPDTRVGDLGLGQQQLVEIAKALNKQVRLLILDEPTASLTEQETSILLDIIRDLQQHGIACIYISHKLNEVKAISDTICVIRDGQHIGTRDAAGMSEDDIITMMVGRELTALYPNEPHTTGDEILRIEHLTAWHPVNRHIKRVNDVSFSLKRGEILGIAGLVGAGRTETIQCLFGVWPGQWEGKIYIDGKQVDIRNCQQAIAQGIAMVPEDRKRDGIVPVMAVGKNITLAALNKFTGGISQLDDAAEQKCILESIQQLKVKTSSPDLAIGRLSGGNQQKAILARCLLLNPRILILDEPTRGIDIGAKYEIYKLINQLVQQGIAVIVISSELPEVLGLSDRVLVMHEGKLKANLINHNLTQEQVMEAALRSEHHVEKQSV | not soluble |
| MNGVYDVGGTDGLGPINRPADEPVFRAEWEKVAFAMFPATFRAGFMGLDEFRFGIEQMNPAEYLESPYYWHWIRTYIHHGVRTGKIDLEELERRTQYYRENPDAPLPEHEQKPELIEFVNQAVYGGLPASREVDRPPKFKEGDVVRFSTASPKGHARRARYVRGKTGTVVKHHGAYIYPDTAGNGLGECPEHLYTVRFTAQELWGPEGDPNSSVYYDCWEPYIELVDT | soluble |
| GPGSMTGRTSSVSENHLGFSAEGGVVNYALLQPHRTEAERRPLAPSEVAQHLMASAAAASGATHSATGGSGAHTMRQCTPKELATRSSKVVTLYDLAGHERYLKTTVLGMTRNMPDYACIVISANNGIQRMTKEHLALCLALKLPFFIVVTRIDSTPPNIHDETLSNIHKLLKIPTVRKLSYPVRRHDEVTLAAKNCAMIALPRSSKSATLPVLASLTYCNSLTYSRLGRTGGRRATCQRR | not soluble |
| MSKNDTEKILLDDLLFLQRAPYYESFSVYKIDSNKYIENENDSHIDRWLSMAVSGDDKTEAPTEFVIEPGGCLISLVVDRRLISLY | not soluble |
| AATTVNGGTVHFKGEVVNAACAVDAGSVDQTVQLGQVRTASLAQEGATSSAVGFNIQLNDCDTNVASKAAVAFLGTAIDAGHTNVLALQSSAAGSATNVGVQILDRTGAALTLDGATFSSETTLNNGTNTIPFQARYFATGAATPGAANADATFKVQYQGGGGGGAATTVNGGTVHFKGEVVNA | soluble |
| MSLRGQVHSVFVVVPRFNLTTLITMIETMRIGNYLSSERLFSWEVTSFDGLNLGASNGVRVHLDVEPDQTAPADQVFVLASWGGEHYQNKALASWLRKRARQGERICAVELGCYLVARAGLMDGKEATTHWSWINGFQEKFDQISVVEQLFTIDGRILTCAGGMAGVDLMLRLIEQSHGAGFSGEIADQMLHNPIRKGSSSQRRTMGRGTESILPLVRQAMTLIERNIEEPLTVPQIAAALDVSQRQLERQFKKHVGCTVVQFGLLRRLQNARVLLIATELSVREIATASGFNTLSHFSYSFSKFFGRRPSDYREAWPSNEAAPTWPGTLSDFLHAINSGDKREGHHHHHH | not soluble |
| GPGSMLRRSYATLRRKASVVLKGQLNPLEALTQIQLGMTPSLPIQRGFLLEHCERQLESLGITEGKLLAMDGRLCTQLTKRIVYELYLSVPFRVFTFDMEFTGPPVFTADGPTEDITELGLYSPLLDETFSCLVRPVCGRKQGPGVEELTHITDMMLEREGIPFVEAWQQFLKFVQTPQPDEISGSEERILLLSHGGKLADVSLIKWTLEKFHMELPPSFVFGDTIHLIRDAHRRRPVTIDKHPPSWKLADLVQWLHIPPTLPAHRAGNDARMTWDALYHTLLRYGDDGMTPREQLVPRFFDAEAKQLLREHTARQAQERAALSLDGTFLLADAKQSTSAGHADSSSIGYSVYRSASDGSGKPGKSGAATDLLDLDFDDIFSEQNKVSASAPIEEFKLDDDDDLHSISAGATSFTASRTLSSTTTSRTADLSVDPAEDDNAVSDVNAASTSTVSPARAAKTATSGGRKGKASGSSRSKEAVEKRNKRRVSAGDDDGGETSDPPAAATRAVFLV | soluble |
| MEKKVLLTGFDPFGGETVNPSWEAVKRLNGAAEGPASIVSEQVPTVFYKSLAVLREAIKKHQPDIIICVGQAGGRMQITPERVAINLNEARIPDNEGNQPVGEDISQGGPAAYWTGLPIKRIVEEIKKEGIPAAVSYTAGTFVCNHLFYGLMDEISRHHPHIRGGFIHIPYIPEQTLQKSAPSLSLDHITKALKIAAVTAAVHEDDIETGGGELH | soluble |
| LGKFSQTCYNSAIQGSVLTSTCERTNGGYNTSSIDLNSVIAAVDGSLKWPSNFIEACRNTQLAGSSELAAECKTAAGQFVSTKINLDDHIANIDGTLKYE | soluble |
| MGSSHHHHHHSSGLVPRGSHMKDTEDAFGHALMDYADGKCSYEMVETRNGKIDVTSISYYFRDHDQWPSMEREAIRYAKGRVVDVGAGAGRHSLYLQDQGFDVTALDISPLAVEVMKHRGVKNAKIASIDEVEPGWDTMILLGNNFGLMRTIDEAMAFLRRFYSESSDDARIIAETTDPLSAGFQSDKGYPGELEIRVIYREYRSEWFRYLLADRQKLREIIKDTGWKIDHFYDIADVDVYCFVLSK | soluble |
| MLSFCPSCNNMLLITSGDSGVYTLACRSCPYEFPIEGIEIYDRKKLPRKEVDDVLGGGWDNVDQTKTQCPNYDTCGGESAYFFQLQIRSADEPMTTFYKCVNCGHRWKEN | not soluble |

Source: the DeepSol protein solubility set
